Assay results taken from patent US12529705 (dated 2026).

Target: T1, full-length protein LRP8 expressed in N2A cells transfected with a cDNA coding for LRP8 (Origene, Cat. No. … (human, UniProt Q14114 33-963))
T1 construct: Tested as a lysate of transfected N2A cells in SDS-PAGE and Western blot, not on intact cells; also called LRP8-FL; APOER2
T1 sequence: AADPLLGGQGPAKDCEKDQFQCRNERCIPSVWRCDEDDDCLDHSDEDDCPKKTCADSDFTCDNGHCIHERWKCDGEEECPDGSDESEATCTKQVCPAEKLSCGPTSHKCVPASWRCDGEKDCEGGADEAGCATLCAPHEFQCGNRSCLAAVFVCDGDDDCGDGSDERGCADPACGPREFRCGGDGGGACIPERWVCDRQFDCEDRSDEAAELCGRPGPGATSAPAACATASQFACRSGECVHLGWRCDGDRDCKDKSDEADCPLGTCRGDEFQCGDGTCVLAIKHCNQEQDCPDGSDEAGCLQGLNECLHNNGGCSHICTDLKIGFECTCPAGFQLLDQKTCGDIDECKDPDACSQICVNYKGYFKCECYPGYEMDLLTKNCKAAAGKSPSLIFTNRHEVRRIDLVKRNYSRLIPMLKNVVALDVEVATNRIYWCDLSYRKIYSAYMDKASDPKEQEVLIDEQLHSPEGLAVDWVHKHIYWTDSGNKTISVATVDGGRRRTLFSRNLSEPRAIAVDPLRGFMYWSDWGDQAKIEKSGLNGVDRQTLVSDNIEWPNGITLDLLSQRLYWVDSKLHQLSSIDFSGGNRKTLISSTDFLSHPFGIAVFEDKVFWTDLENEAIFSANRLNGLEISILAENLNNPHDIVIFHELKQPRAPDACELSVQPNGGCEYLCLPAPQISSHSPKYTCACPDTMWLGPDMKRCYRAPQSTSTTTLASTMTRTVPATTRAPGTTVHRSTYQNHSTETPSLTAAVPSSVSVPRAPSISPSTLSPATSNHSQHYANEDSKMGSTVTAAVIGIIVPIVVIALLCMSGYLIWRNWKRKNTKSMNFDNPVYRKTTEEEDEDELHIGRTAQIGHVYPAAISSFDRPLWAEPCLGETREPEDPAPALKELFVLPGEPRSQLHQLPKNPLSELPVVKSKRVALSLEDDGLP
Assay: Western blot, lysate of LRP8-transfected N2A cells, antibody at 1 µg/ml
Text: The two lines of hybridomas described above develop antibodies that recognize both the entire protein LRP8 and its different C-terminal fragments. […] I.D. 5 and 9 with a cysteine at the C-terminus are able to produce antibodies that recognize both the protein LRP8 as such, and the fragments of 18-25 kDa, which are substrates of γ-secretase and different shorter fragments of 8-16 kDa, collectively defined as LICDs-derived intracellular domain LRP8, similar to the AICDs fragments derived from the cleavage of AβPP by γ-secretase or by other proteases such as those previously specified. The polyclonal antibodies (rabbit) GS1 and GS2 were made using SEQ I.D. 5 and SEQ I.D. 9, respectively. […] In lane 8 there is a negative control whereas in lane 9 the hybridization was performed using a commercial antibody vs LRP8 (Sigma Aldrich Cat No. SAB1306331) as a positive control. All the antibodies were used at the final concentration of 1 µg/ml. It is therefore clear that both the polyclonal antibodies and the antibodies of clones of hybridomas according to the present invention are able to identify not only the full-length protein LRP8 and the fragments from 18-25 kDa, but also advantageously the fragments 8-16 kDa, as indicated by the boxes in FIG. 3. […]

B1: monoclonal antibody of hybridoma 25F7F1 (antibody, V domains shown)
VH: EVQLQQSGPVLVKPGASVKMSCKASGYKFTDHFMNWVKKNHGKSLEWIGVINPYNGGTRLNPKFKGKATLTVDKSSSTVYMELNSLTFEDSAVYYCARETIDLAWFAYWGQGTLVTVSA
VL: DVLMTQTPPSLPVTLGDQASISCRSSQSIVYSNGKTYLEWYLQKPGQSPKLLMYKVSNRFSGVPDRFSGSGSGTDFTLKISSVEAEDLGIYYCFQGSHVPLTFGAGTKLELK
notes: Mouse (BALB/c) hybridoma monoclonal; also called antibody produced by 25F7F1 mouse hybridomas
binding result: binds
